One may read the stoichiometry N as the number of molecules, sites or subunits per partner or assembly. As a reminder, the Kd is the constant that tells how readily two partners part at equilibrium.

Where “and” joins values, the source holds several entries; their conditions need not be identical. Identical values can stand only once. Like-named read-outs stand apart in the source and are kept apart here.

These results are taken from article PMC12738837, “Structure of Trypanosoma peroxisomal import complex unveils conformational heterogeneity” (Nature Communications, 2025).

The target of assay [1] is Pex5eTPR (truncated Pex5, extended TPR domain with one Wxxx(F/Y) motif; residues 314-666), Trypanosoma cruzi (Trypanosoma cruzi) (UniProt Q4DPQ9). The assay is described as follows: ITC; Pex14NTD (175 uM, syringe) injected into Pex5eTPR in the cell, in the absence of PTS1 peptide; 20 mM sodium phosphate, 100 mM NaCl, pH 6.5, 25 °C. (ITC needs no label: the signal is the heat of the interaction.)

In assay [2] the target is Pex5eTPR(GSGS) (Trypanosoma cruzi) (UniProt Q4DPQ9). Described as above.
The target of assay [3] is Pex5eTPR(N353E) (Trypanosoma cruzi) (UniProt Q4DPQ9). Described as above.
Assay [4] deals with Pex5eTPR(Y358A) (Trypanosoma cruzi) (UniProt Q4DPQ9). The assay is described as above.
For assay [5], the target named is Pex5_(eTPR) + PTS1 (complex of Pex5_(eTPR) with the PTS1 peptide, prepared before ITC) (Trypanosoma cruzi) (UniProt Q4DPQ9). The assay is described as follows: ITC; Pex14NTD (175 μM) injected into Pex5_(eTPR) + PTS1 (20 μM + 50 μM peptide) in the cell; 20 mM sodium phosphate, 100 mM NaCl, pH 6.5; 25 °C.
For assay [6], the target named is Pex5_(eTPR) with a GSGS-spacer between the Pex5 TPR domain and Wxxx(F/Y) motif + PTS1 peptide (Trypanosoma cruzi) (UniProt Q4DPQ9). The description is as above.
For assay [7], the target named is Pex5_(eTPR)(N353E) + PTS1 peptide (Trypanosoma cruzi) (UniProt Q4DPQ9). Described as above.
Assay [8] concerns the target Pex5_(eTPR)(Y358A) + PTS1 peptide (Trypanosoma cruzi) (UniProt Q4DPQ9). Described as above.
Assay [9] deals with MDH(GSGS) linker variant (Trypanosoma cruzi). Kind of assay: ITC; Pex5_(eTPR) (250 μM) injected into MDH (25 μM) in the cell; 100 mM Hepes, 150 mM NaCl, 2 mM β-mercaptoethanol, pH 7.5; 25 °C.
Assay [10] addresses MDH(Δ62–70) (Trypanosoma cruzi). Described as above.
Assay [11] concerns the target 6-FAM labeled PTS1 peptide. The assay is described as follows: fluorescence polarisation. (In general: Polarisation of emitted light reports the rotation of a fluorescent probe.)
For assay [12], the target named is PTS1 peptide derived from MDH (NH2-ARSKL-COOH) (Trypanosoma cruzi). Kind of assay: ITC; Pex5_(eTPR) with the PTS1 peptide (NH2-ARSKL-COOH); who was in the cell is not stated for the peptide; 25 °C.
The target of assay [13] is glycosomal malate dehydrogenase (MDH, residues 1–323) (Trypanosoma cruzi) (UniProt Q4DRD8). The assay is described as follows: ITC; Pex5_(eTPR) (250 μM) injected into MDH (25 μM) in the cell; 100 mM Hepes, 150 mM NaCl, 2 mM β-mercaptoethanol, pH 7.5; 25 °C.
The target in assay [14] is MDH(GSGS), glycosomal malate dehydrogenase with a GSGS linker between MDH and its PTS1 (Trypanosoma cruzi). The assay is described as follows: ITC; Pex5eTPR in the syringe injected into MDH in the cell; 100 mM Hepes, 150 mM NaCl, 2 mM beta-mercaptoethanol, pH 7.5, 25 °C; independent model; single titrations (replicates), each fitted by itself.
In assay [15] the target is glycosomal malate dehydrogenase (MDH), wild type (Trypanosoma cruzi). The description is as above.
The target in assay [16] is Pex5eTPR (wild type) mixed beforehand with the PTS1 peptide of MDH (Trypanosoma cruzi) (UniProt Q4DPQ9). Kind of assay: ITC; Pex14NTD in the syringe injected into Pex5eTPR + PTS1 peptide in the cell; 20 mM sodium phosphate, 100 mM NaCl, pH 6.5, 25 °C; independent model.
The target in assay [17] is 6-FAM labeled PTS1 peptide. Kind of assay: fluorescence polarisation. This is another data set of the same source.
Assay [18] concerns the target T1, PTS1 peptide derived from MDH (NH2-ARSKL-COOH) (Trypanosoma cruzi).
T1 chain: ARSKL
The assay is described as follows: ITC; Pex5_(eTPR) with the PTS1 peptide (NH2-ARSKL-COOH); who was in the cell is not stated for the peptide; 25 °C.

Assay [19] concerns the target T2, glycosomal malate dehydrogenase (MDH, residues 1–323) (Trypanosoma cruzi), Q4DRD8.
T2 chain: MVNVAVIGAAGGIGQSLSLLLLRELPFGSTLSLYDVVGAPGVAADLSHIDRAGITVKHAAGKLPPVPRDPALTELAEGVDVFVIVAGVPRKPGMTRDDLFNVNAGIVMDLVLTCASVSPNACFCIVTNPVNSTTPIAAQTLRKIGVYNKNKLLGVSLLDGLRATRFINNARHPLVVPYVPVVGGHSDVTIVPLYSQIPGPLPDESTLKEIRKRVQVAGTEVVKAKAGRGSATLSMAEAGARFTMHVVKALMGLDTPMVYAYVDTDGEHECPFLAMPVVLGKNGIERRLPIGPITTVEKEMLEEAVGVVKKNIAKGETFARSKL
Kind of assay: ITC; Pex5_(eTPR) (250 μM) injected into MDH (25 μM) in the cell; 100 mM Hepes, 150 mM NaCl, 2 mM β-mercaptoethanol, pH 7.5; 25 °C.

For assay [20], the target named is T3, glycosomal malate dehydrogenase (MDH, residues 1–323) (Trypanosoma cruzi, UniProt Q4DRD8 1-323).
T3 construct: glycosomal malate dehydrogenase (MDH), Trypanosoma cruzi, residues 1-323, UniProt Q4DRD8; Tetramer (two dimers related by D2 symmetry) by cryo-EM; also called cargo; MDH tetramer; source: E. coli BL21 (DE3), purified (Ni-NTA, SEC)
T3 sequence (looked up): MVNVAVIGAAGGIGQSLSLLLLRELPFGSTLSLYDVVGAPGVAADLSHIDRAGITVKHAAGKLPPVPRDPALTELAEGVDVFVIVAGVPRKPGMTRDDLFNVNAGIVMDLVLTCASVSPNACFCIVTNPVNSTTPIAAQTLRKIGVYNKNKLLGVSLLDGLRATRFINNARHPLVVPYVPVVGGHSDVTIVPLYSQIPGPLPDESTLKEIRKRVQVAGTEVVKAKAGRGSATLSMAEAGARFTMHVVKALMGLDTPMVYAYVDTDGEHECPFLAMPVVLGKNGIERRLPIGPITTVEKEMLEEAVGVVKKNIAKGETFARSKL
Described as above. As to conditions: both partners purified.

As to “N-terminal domain of Pex14 (Pex14NTD; residues 21-85), Trypanosoma cruzi (domain or fragment)”, the stoichiometry N in assay [1] came to 0.657; in assay [2], 0.568; in assay [3], 0.738; in assay [4], 0.762. Besides, the results for the Kd in assay [2], in assay [3] and in assay [4] were 122 nM, 48 nM and 119 nM, respectively.

Take “N-terminal domain of Pex14 (Pex14NTD; residues 21–85) (domain or fragment)”: the Kd in assay [5] was found to be 53 nM; in assay [6], 178 nM; in assay [7] it was 45 nM; in assay [8], 81 nM. Moreover, the dH in assay [5] is -15.4 kcal/mol; in [6], -12.6 kcal/mol; in assay [7], -13.8 kcal/mol; in assay [8], -13.7 kcal/mol. The stoichiometry N is 0.671 in assay [5], 0.7 in [6], 0.659 in [7] and 0.88 in assay [8].

As for “Pex5_(eTPR) (residues 314–666), truncated Pex5 containing an extended TPR domain with a single Wxxx(F/Y) motif (from UniProt Q4DPQ9 316-668) (domain or fragment)”, in assay [9], the Kd worked out at 148 nM, the dH was -5.74 kcal/mol and the stoichiometry N amounted to 0.543. In assay [10], the Kd is 1000 nM, the dH is -6.07 kcal/mol and the stoichiometry N came to 0.5.

For the molecule “Pex5_(eTPR) in presence of excess Pex14NTD (from UniProt Q4DPQ9 316-668) (complex)”, the Kd in assay [11] was 80 nM.

In assay [12], “Pex5_(eTPR)(Δ470–480) (from UniProt Q4DPQ9 316-668) (domain or fragment)” registered a Kd of 420 nM, a dH of -6.31 kcal/mol and a stoichiometry N of 1.04. Besides, in [13], the Kd was found to be 102 nM, the dH was -6.88 kcal/mol and the stoichiometry N turned out to be 0.452.

On to “Pex5eTPR, truncated Pex5 with the extended TPR domain and a single Wxxx(F/Y) motif, wild type (from UniProt Q4DPQ9 314-666) (domain or fragment)”, for which, in assay [14], the Ka was 5.79e+06 M⁻¹ and 8.29e+06 M⁻¹; the Kd is 173 nM and 121 nM; the stoichiometry N was 0.722 and 0.503. In assay [15], the Ka was 2.03e+06 M⁻¹ and 2.77e+06 M⁻¹ and 2.21e+06 M⁻¹; the Kd was 492 nM and 361 nM and 453 nM; the stoichiometry N is 0.309 and 0.622 and 0.265.

Consider Pex14NTD(A48F) (domain or fragment), for which, in assay [5], the Kd is 121 nM, the dH is -18.3 kcal/mol and the stoichiometry N was determined as 0.608. For the same molecule, the Ka in [16] was 8.24e+06 M⁻¹. Besides, in assay [1], the Kd turned out to be 59 nM and the stoichiometry N turned out to be 0.68.

Regarding Pex14NTD(Q52A) (domain or fragment), in assay [5], the Kd is 54 nM, the dH is -15.7 kcal/mol and the stoichiometry N amounted to 0.664. For the same molecule, the Ka in assay [16] stood at 1.86e+07 M⁻¹. Moreover, in assay [1], the Kd was determined as 17 nM and the stoichiometry N is 0.647.

B1: Pex5_(eTPR) (residues 314–666), truncated Pex5 containing an extended TPR domain with a single Wxxx(F/Y) motif, Q4DPQ9 316-668 (domain or fragment)
chain: MDDGALDNAADVEEWVREYAEAQEQLQRVQNETNYPFEPNNPYMYHDKPMEEGIAMLQLANMAEAALAFEAVCQKEPENVEAWRRLGTTQAENEKDCLAIIALNHARMLDPKDIAVHAALAVSHTNEHNVGAALQSLRSWLLSQPQYEHLGLVDLREVAADEGLDEVPEENYFFAAPSEYRDCCTLLYAAVEMNPNDPQLHASLGVLHNLSHRFDEAAKNFRRAVELRPDDAHMWNKLGATLANGNRPQEALEAYNRALDINPGYVRVMYNMAVSYSNMAQYPLAAKHITRAIALQAGGTNPQGEGSRIATRGLWDLLRMTLNLMDRSDLVEASWQQDLTPFLREFGLEEMAV
modifications: not checked
In assay [17], B1 had a dissociation constant (Kd) of 254 nM. In assay [18], the dH is -5.02 kcal/mol and the stoichiometry N was 0.933. In addition, in assay [19], the dH was -6.33 kcal/mol and the stoichiometry N was found to be 0.398.

B2: Pex5_(eTPR)(R625A, D629A) (domain or fragment)
chain: MDDGALDNAADVEEWAREYAEAQEQLQRVQNETNYPFEPNNPYMYHDKPMEEGIAMLQLANMAEAALAFEAVCQKEPENVEAWRRLGTTQAENEKDCLAIIALNHARMLDPKDIAVHAALAVSHTNEHNVGAALQSLRSWLLSQPQYEHLGLVDLQEVAADEGLDEVPEENYFFAAPSEYRDCCTLLYAAVEMNPNDPQLHASLGVLHNLSHRFDEAAKNFRRAVELRPDDAHTWNKLGATLANGNRPQEALEAYNRALDINPGYVRVMYNMAVSYSNMAQYPLAAKHITRAIALQAGGTNPQGEGSRIATAGLWALLRMTLNLMDRSDLVEASWQQDLTPFLKEFGLEDMAV
notes: source: E. coli BL21 (DE3), purified as wild type (Ni-NTA, SEC)
On to B2, for which, in assay [20], the dH was -5.38 ± 0.12 kcal/mol and the “stoichiometry N” value is 0.5 ± 0.006.

B3: Pex5_(eTPR)(P490R) (domain or fragment)
chain: MDDGALDNAADVEEWAREYAEAQEQLQRVQNETNYPFEPNNPYMYHDKPMEEGIAMLQLANMAEAALAFEAVCQKEPENVEAWRRLGTTQAENEKDCLAIIALNHARMLDPKDIAVHAALAVSHTNEHNVGAALQSLRSWLLSQPQYEHLGLVDLQEVAADEGLDEVPEENYFFAARSEYRDCCTLLYAAVEMNPNDPQLHASLGVLHNLSHRFDEAAKNFRRAVELRPDDAHTWNKLGATLANGNRPQEALEAYNRALDINPGYVRVMYNMAVSYSNMAQYPLAAKHITRAIALQAGGTNPQGEGSRIATRGLWDLLRMTLNLMDRSDLVEASWQQDLTPFLKEFGLEDMAV
notes: as for B2
On to B3, for which, in assay [20], the dH was -6.43 ± 0.215 kcal/mol and the “stoichiometry N” value came out at 0.292 ± 0.006.
